Measurements taken from the emibetuzumab library of Makowski et al. (2022).

B1: VH:VL chains; a variant is named by its letters at X, in order (parent)
chain 1: QVQLVQSGAEVKKPGASVKVSCKASGYTFTDYXMHWVRQAPGQGLEWMGXVNPNXXXTTYNQKFEGRVTMTTDTSTSTAYMELRSLRSDDTAVYYCARXNXLDXWGQGTTVTVSS
chain 2: DIQMTQSPSSLSASVGDRVTITCSVSSSVSSIYLHWYQQKPGKAPKLLIYSTSNLASGVPSRFSGSGSGTDFTLTISSLQPEDFATYYCQVYSGYPLTFGGGTKVEIK

Variants of: B1
Assay: yeast display scFab, FACS + sequencing
Outline: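 Non-specific binding was called from deep sequencing of sorted yeast cells displaying a heavy-chain CDR mutant scFab library. Cells labelled with anti-Myc and biotinylated ovalbumin (260 μg/mL in PBSB, 3 h, room temperature) or soluble membrane proteins (130 μg/mL, 20 min on ice) were FACS-sorted, collecting the top 25% and bottom 10% of binders from two replicates. A sequence was positive when present in ≥3 of 4 pooled positive samples and absent from all negatives, and negative under the converse rule.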

Variant | non-specific binding call
DRRGDDGA | no binding
DRRGDDGV | no binding
YRKGSAAA | binds
YRRGDFWA | no binding
YRKGGAAV | binds
YRKGGAAS | binds
YRKGGAAY | binds
YRKRGAGD | binds
YRKRGAGA | binds
YRKGGAVV | binds
YRKGGAVD | binds
FRRGDALD | binds
YRGRTSLD | binds
YRGRGYWA | binds
YRGRGYWY | binds
YRGRGYWV | binds
YRGRSAAY | binds
FRGRGVGA | binds
FRGRGVGD | binds
VRKGGSGV | binds
YRGRSSAA | binds
FRGTGSWA | binds
DRRGDSLV | no binding
YRKRGSVF | binds
YRKRGSVV | binds
YRKGGFSS | binds

Variant | non-specific binding call
DRRGDASD | no binding
YRKEAAAA | binds
YRKGSSWD | binds
ARRGAYGV | binds
YRRGASWD | binds
YRKGASAF | binds
VRRGDSVA | binds
FRGRSSVA | binds
YRGRGYGA | binds
YRGRGYGF | binds
YRGRGYGS | binds
VRRGDVGV | binds
FRKGTALD | binds
VRKGGVAV | binds
YRKRTFGA | binds
YRKGGSVS | binds
VRKGGSLD | binds
VRKGGSVY | binds
FRKAAVAV | binds
YRGRSSWS | binds
YRGRSSWD | binds
YRGTGAGV | binds
SRKGGDAA | no binding
YRKRSVVF chain 1 S115F | binds
YRRANFLD | binds
VRKRGSSS | binds

Variant | non-specific binding call
YRGRSAGV | binds
YRGRSAGA | binds
YRGRSAGY | binds
YRGRSAGS | binds
YRKGAALA | binds
VRGRSSVV | no binding
SRKKGDGS | binds
YRRESSGY | binds
YRRESSGV | binds
FRGRGYWV | binds
FRGRGYGA | binds
YRKRGVGV | binds
ARKGSSGD | binds
VRGRGYAA | binds
ARKTGAGA | binds
DRREDALD | no binding
FRGTGFVD | binds
VRGTGAVY | binds
FRRGDAVA | binds
VRRASSVA | binds
SRGRGYSV | binds
YRKGSSAA | binds
YRGRGVSD | binds
YRGRGVSS | binds
YRKGGDLY | no binding
YRKRGDVV | binds

Variant | non-specific binding call
YRREGSVV | binds
YRRGAAWA | binds
FRGRSSGV | binds
VRRGGAAA | binds
VRGTGSGA | binds
YRKGASVD | binds
YRKGGSAA | binds
VRGTDAVV | no binding
YRRGDAWY | binds
YRRGDAWD | binds
YRKGSSGV | binds
YRKGSSGA | binds
YRKGSSGD | binds
YRKGSSGF | binds
YRKKGDLA | binds
FRKGGSLD | binds
YRKGGFVA | binds
VRRGDAGY | no binding
VRGRSSGS | binds
YRKRGAAA | binds
YRKRGAAD | binds
YRKGAAVV | binds
SRGRGVLV | binds
YRKENYGD | binds
VRKRGALD | binds
YRKGDSLD | binds

Variant | non-specific binding call
VRGRSDWV | no binding
VRGTGVAV | binds
YRRGDSWD | binds
YRGRSFAV | binds
DRRANFLY | binds
SRKGAASD | binds
YRKEAAWV | binds
YRKGGSWS | binds
SRRETFVF | binds
VRRAADSD | binds
YRRESAGF | binds
YRGRTAAA | binds
YRGRTAAV | binds
YRGRTAAD | binds
YRGRTAAY | binds
YRGRTAAF | binds
YRGRGYVS | binds
FRKGGAGS | binds
YRKRGAVD | binds
VRGRSSAA | binds
YRRGDAGF | binds
YRRGDAGS | binds
YRGRTAGV | binds
YRGRGVLF | binds
YRRGDSGV | binds
YRGRSSLY | binds

Variant | non-specific binding call
YRREGSLD | binds
YRREGSLA | binds
YRKGAASD | binds
YRREGSAV | binds
DRREDSSA | no binding
YRKKTDWS | binds
FRKGSAVD | binds
YRKGTAGD | binds
DRRGDAVA | no binding
DRRGDAVY | no binding
FRKRGSAV | binds
DRRGDSSA | no binding
VRGRSAWS | no binding
VRGTGDWD | no binding
FRKRSFSS | binds
YRREGDWA | binds
VRGRGVSY | binds
YRKRGSSA | binds
VRKKGVSS | binds
VRGTGFGA | binds
VRRGDDVY | no binding
YRRAADSD | binds
SRKEGAAY | no binding
FRGTGSGD | binds
VRGRGVAV | binds
YRKGSAGD | binds

Variant | non-specific binding call
FRRGDSAA | binds
VRRGDSSD | no binding
VRGTGYAS | binds
VRKGSSGD | binds
YRKGGAWV | binds
YRKGGAWY | binds
YRKGGAWF | binds
FRRGDAAV | binds
YRREGSGV | binds
YRGRGYSV | binds
DRGRSDVA | no binding
YRKGSSVD | binds
YRKGSSVS | binds
FRGRSSAF | binds
FRGRSSAA | binds
FRGRGYVA | binds
FRGRGYVV | binds
DRREGYGA | binds
YRKGDAGD | binds
YRKKSVGA | binds
YRKGGSGY | binds
YRKGGSGA | binds
YRKGGSGV | binds
VRGTGSWD | binds
YRGRGVVD | binds
YRGRGVVY | binds

Variant | non-specific binding call
FRKGGAAA | binds
YRGRSFGV | binds
YRGRGVWV | binds
YRGRSAWF | binds
YRGRSAWV | binds
YRGRSAWD | binds
YRKESAVY | binds
YRRGASSS | binds
DRKGGDWS | binds
FRKRGAWY | binds
FRREGSSD | binds
YRKGDSGD | binds
YRGRSSSV | binds
YRKEGAAA | binds
YRRGASGV | binds
YRRGDSSA | binds
YRGRSASV | binds
YRGRSASS | binds
YRGRSASY | binds
VRRGDFWA | no binding
FRGRSSLA | binds
SRGRGYGD | binds
VRKKGYVY | binds
YRKKGALY | binds
YRRGAAGD | binds
YRRGDSAD | binds

Variant | non-specific binding call
YRGTGSVD | binds
FRKGGSGD | binds
FRKGGSGV | binds
FRGRSYVD | binds
YRKGGAGS | binds
YRKGGAGF | binds
DRRGDDVF | no binding
VRRANFLD | binds
VRRETVSD | binds
FRGRGYAV | binds
YRRGDAAF | binds
YRKGSAWD | binds
VRGRSDVF | no binding
YRRGDASD | binds
FRKRGSVF | binds
FRGTSFGD chain 1 T58I | binds
YRREGAGD | binds
VRGRGVGY | binds
VRGTDAGV | no binding
ARGRSDAV | no binding
VRGTGSAD | binds
YRKGSALD | binds
YRGRSALA | binds
VRGRGYGV | binds
YRKGSASD | binds
YRRGDSLY | binds

Variant | non-specific binding call
YRKGSSLF | binds
YRRGDDGD | binds
YRGRGVGY | binds
YRGRGVGA | binds
YRGRGVGS | binds
YRGRGVGD | binds
YRGRGVGF | binds
ARGRSDVA | no binding
SRGRGVGA | binds
FRKGDASD | binds
YRRGAAAA | binds
YRRGAAAV | binds
ARRGAAGV | binds
FRRGGAAA | binds
YRKRGSLY | binds
YRKRGSLV | binds
FRRGDAGD | binds
VRGRSSLF | binds
YRGRGYAA | binds
YRGRGYAY | binds
YRKRGSGV | binds
